Experimental data as given in paper PMC6166240 (Cell reports, 2018).

Molecular target: T1, Extradenticle (Exd), residues 237-310 of isoform A (homeodomain and ten further residues) (Drosophila)
T1 chain: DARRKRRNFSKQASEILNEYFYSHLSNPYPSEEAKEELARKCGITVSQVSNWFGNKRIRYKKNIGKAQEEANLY
Experiment: crystal structure

B1: Abdominal-B (AbdB), residues 146-229 of isoform A (W motif, linker and homeodomain) (domain or fragment)
chain: not shown
binding result: binds
